Results reported in the supplement of paper PMC9170038.

System: K4 kissing-loop RNA reporter
Experiment: apparent KD of K4 kissing-loop reporter; higher = weaker reporter binding
Conditions: Eterna round: R107
Description: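 RNA-MaP round R107: designed RNA switches with theophylline, tryptophan, arginine or FMN aptamers are transcribed on-chip within common flanks. They are titrated with a labelled K4 kissing-loop RNA reporter in RNA-MaP buffer (100 mM Tris pH 7.5, 80 mM KCl, 4 mM MgCl2), without ligand or with the indicated ligand. Median apparent KD per design.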

[1] = input ligand: theophylline 20 uM
[2] = input ligand: tryptophan 2.4 mM
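Note: bound reporter read as fluorescence of individual clusters on recovered sequencing chips by microscopy, with normalized cluster intensities fitted with a binding model.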

Sequence | apparent KD of K4 kissing-loop reporter (input ligand: FMN 200 uM) | apparent KD of K4 kissing-loop reporter (input ligand: arginine 13.2 mM) | apparent KD of K4 kissing-loop reporter (input ligand: none) | apparent KD of K4 kissing-loop reporter [1] | apparent KD of K4 kissing-loop reporter [2]
GCGCGUCAUGUCAGCGGUGACUAUGUCGAUACCAGCGCCGCAAGGCGCCCUUGGCAGCGACGCGCUGGAGUGAUGUUCCGACGGC [#2 Exclusion - Theophylline A Attempt #9 (HarryS)] | 144 nM | 153 nM | 148 nM | 159 nM | 129 nM
GCGGCCCAGCCGGAUACCAGUGAGCCGCUGGGAACCGCGGGCCCAGAGUGAUGUUCGGGACACCCUUGGCAGCCGCCUGGGUCGC [#2 Same State - Theophylline B Attempt #20 (HarryS)] | 486 nM | 293 nM | 643 nM | 301 nM | 491 nM
GCGGGCCAGACGGCCGCCACUCCGGGCAGUGAUGUUGCGAAACUUCUACUAGAGUGAUGUUCUACGAGGACCGGGUCGGAACGCG [Exclusion Tryptophan B Gf 13] | 789 nM | 703 nM | 951 nM | 1000 nM | 578 nM
GCGUAGGAAGAAGGAUAUCACAGGAUGCCACGUUAGUGAUGUUAAUUUGGUUCAGCGCGAUUCUGAUGAGAAGGUCUUUUAUGAU [theeternabot_sameState_KL_FMN_B_47] | 220 nM | 300 nM | 295 nM | 205 nM | 210 nM
GCGUCACGUCGGGAUACCAGAGAAAUGGCAUUAGCCAAUGACGAGUGAUGUUCGUAGGCGCUCCCUUGGCAGCCCACCGGGAGGA [theeternabot_sameState_KL_Theo_B_21] | 351 nM | 218 nM | 311 nM | 340 nM | 278 nM
GGACAACUAUGUCCCAUACAAACAAGAGAUACCAGCCAUCAUAGAGGCCCUUGGCAGCUCAUAUAAUCCAGUGAUGUUGGAUUUC [Atgebeus] | 165 nM | 215 nM | 179 nM | 149 nM | 148 nM
GGACCUCAGUGAUGUUGAGGUAACGCUGAUACCAGUGACUUAAUUCGCCCUUGGCAGCAGUCCACCGAGGUAUCUGAUUAGGUCU [Default title] | 133 nM | 145 nM | 149 nM | 155 nM | 139 nM
GGAGGAGAAUAUGAUACCAGCAGAGAGAGAUACGAAGUAUAGUGAUGUUAUAUGAGAGAAUGCCCUUGGCAGCAUAAGACGCAGG [#08 K4 Theophylline B Same State] | 86 nM | 83.3 nM | 116 nM | 95 nM | 84.8 nM
GGAGUCCCGUUAGAUUGUGUAGAUACAAGACGAGGACCGGUACGGCCGCCACUCGCCAUCGUCCAGUGAUGUUGGGCGUCACGGG [theeternabot_sameState_KL_Trp_A_30] | 262 nM | 179 nM | 235 nM | 227 nM | 219 nM
GGAGUUACCUGGGAUACCAGUCGGAGUCCCAGAGCACAGAGUGAUGUUCUGGGAUGUUUCGGCCCUUGGCAGCUCUGGGACUCCC [#2 Exclusion - Theophylline B Attempt #13 (HarryS)] | 482 nM | 254 nM | 142 nM | 402 nM | 222 nM
GGAUAGGAAAGAGGAUAUGGGCUAGGCAAGAAUAACUUGUCUAGCAAAUCCAUGAGGAGUGAUGUUCCAGAAGGCUUUCCUAUCG [FmnBX 1 A9+U77] | 995 nM | 141 nM | 160 nM | 157 nM | 126 nM
GGAUAGGACAGAGGAUAUCCUUGAGGCAAGAAACUUGUCUCUAAAAGGAUGAACCUAGUGAUGUUAGGAGAAGGCUGUCCUAUCG [FmnBX 13 - #SwitchBubble #StaticStem #Palindromic] | 132 nM | 90 nM | 98.2 nM | 85 nM | 95.9 nM
GGAUAGGACAGAGGAUAUCCUUGAGGCAAGAAACUUGUCUCUAAAGGAUGAAUCCUAGUGAUGUUAGGAGAAGGCUGUCCUAUCG [FmnBX 14 - #SwitchBubble #StaticStem #Palindromic] | 103 nM | 82.2 nM | 85 nM | 77.2 nM | 87.1 nM
GGAUAGGACAGAGGAUAUGGACAGUCUACAAAGUAGGCUGAAAAUCCUUGAAUGGAAGUGAUGUUUCUAGAAGGCUGUCCUAUCG [FmnBX 19 - #SwitchBubble #StaticStem #Palindromic] | 800 nM | 160 nM | 190 nM | 174 nM | 180 nM
GGAUAGGACAGAGGAUAUGGUAGUGAUGUUACCAAACUGGUUACUUUUGUCAGAAAACUGGCAUUUCCAGAAGGCUGUCCUAUCG [KL-XFMN-B12] | 287 nM | 71 nM | 68.6 nM | 58 nM | 68.3 nM
GGAUAGGACAUAGGAUAUGGGCUAGGCAAGAAUAACUUGUCUAGCAAAUCCAUGAGGAGUGAUGUUCCAGAAGGAUGUCCUAUCG [FmnBX 1 U11+A75] | 566 nM | 108 nM | 112 nM | 123 nM | 84.5 nM

Sequence | apparent KD of K4 kissing-loop reporter (input ligand: FMN 200 uM) | apparent KD of K4 kissing-loop reporter (input ligand: arginine 13.2 mM) | apparent KD of K4 kissing-loop reporter (input ligand: none) | apparent KD of K4 kissing-loop reporter [1] | apparent KD of K4 kissing-loop reporter [2]
GGAUAGGACGGAGGAUAUGGUAGUGAUGUUACCAAACUGGUUAAACAUGUCAGAAAACUGGCAUGACCAGAAGGCCGUCCUAUCG [FmnBX 27 G10+C76] | 108 nM | 62.6 nM | 69.6 nM | 61.6 nM | 67.4 nM
GGAUAGGAUAGAGGAUAUGGUUUAGGCAAGAAUAACUUGUCAUGUAAAUCCAUGAGGAGUGAUGUUCCAGAAGGCUGUCCUAUCG [MatMod 8 - Jieux - Exclusion - FMN B] | 576 nM | 123 nM | 121 nM | 142 nM | 91.8 nM
GGAUAGGAUAGAGGAUAUGGUUUAUGCAGGAAUAACUUAUCGUGUAAAUCCAUAGGGAGUGAUGUUCCAGAAGGCUGUCCUAUCG [MatMod 13 - Jieux - Exclusion - FMN B] | 408 nM | 202 nM | 228 nM | 250 nM | 170 nM
GGAUCCACCAGUGAUGUUGGAGAAAACUCCAAGGAUAUGACGAAAGUCAGAAGGUGGUAGACUGGACAAAGUCCGGUGGGAUCCA [FmnA10 G78] | 661 nM | 141 nM | 392 nM | 438 nM | 88.7 nM
GGAUGGUAGGCGGCCGCCACUAAAACAGAACACAUACAAGCCAGUGAUGUUGGUAUGAUGGUGUAUAGGACCGGGCCUAGAUAGA [Exclusion - Tryptophan B (Freestyle 5)] | 197 nM | 178 nM | 199 nM | 186 nM | 196 nM
GGAUGGUAGGCGGCCGCCACUAAAACUGAACACAUACAAGCCAGUGAUGUUGGUAUGAUGAAGUAUAGGACCGGGCCUAGAUAGA [Exclusion - Tryptophan B (Freestyle 3)] | 446 nM | 384 nM | 422 nM | 502 nM | 469 nM
GGAUUUGAAAGUGAGUGAUGUUCAUGUUGUGAGGAUAUGUAGAGAUAUAGAAGGCACGUUUGUAUUUUUUUUGUGUGAGAUUAAA [Last Minute #1] | 81.5 nM | 64.9 nM | 65.1 nM | 75.2 nM | 65.5 nM
GGCACGGUGGCGCGACUGCCGUGCGCUUGGGAGGAUAUGUUUCGUGACAGAAGGCCCAGUGAUGUUGGGUCUGUUCAAAAGGACU [Gegearer] | 359 nM | 125 nM | 127 nM | 130 nM | 112 nM
GGCAUAUGGGCAGGAUAUAGGCAGGUAGAGUGAUGUUCUUUCUGAAUAAUUCCAUCCUUCUACCUACUAGAAGGGCCCAUAUGCC | 56.5 nM | 106 nM | 68.7 nM | 110 nM | 67.9 nM
GGCAUCCAUGGACAUAGUGAUGUUAUGUACCGAGGACCGGUACGGCCGCCACUCGGCCAUGGAUGCCGCAAUCGGAAACGAUUGC | 868 nM | 558 nM | 885 nM | 667 nM | 290 nM
GGCCCGGGCUCGGCCGCCACUCCCUCGUACCGCAAGGUAUGAUACCGAGUGAUGUUCGGUUGGAGGAGGACCGGGAGCCCGGGCC [#2 Exclusion - Tryptophan B Attempt #6 (HarryS)] | 116 nM | 118 nM | 106 nM | 101 nM | 102 nM
GGCGGCCGCGCGCAAGCGCGGCCGGCCGAUACCAGCGCGACGGCGCGCCCUUGGCAGCGGCGCCGAGUGAUGUUCGGCCUGCCGG [#2 Same State - Theophylline A Attempt #16 (HarryS)] | 376 nM | 447 nM | 585 nM | 454 nM | 482 nM
GGCUUACUAGUGAUGUUAGUAUUUUCUGAAGGAGCGCGUGAAAACGCAGGUAGGUCGCAGAACCUUGCCAACUAUUUUAGUUGCC [Ex Arginine A K4 28] | 144 nM | 157 nM | 115 nM | 136 nM | 104 nM
GGGAAGGGACACAAGGAGGAACGAAGGGAAGGAGCGCCGGAGGAGGCAGGUAGGUCGCCCAACCAGUGAUGUUGGAAUUUAAUCC [Default title] | 242 nM | 125 nM | 287 nM | 114 nM | 196 nM
GGGAGGAGUGGUGUUGAUUAGGGAGCGGAAGGAGCGCCGAGGAAGGCAGGUAGGUCGCCGGAUUAUAGUGAUGUUAUGAAGAGGG [ExArg.J] | 663 nM | 716 nM | 679 nM | 1010 nM | 577 nM
